Test results: paper PMC9597381, “Molecular determinants of TRAF6 binding specificity suggest that native interaction partners are not optimized for affinity” (Protein Science : A Publication of the Protein Society, 2022)
Where “and” joins values, the source holds several entries; their conditions need not be identical. Identical values can stand only once.

T1: monomeric TRAF6 (T6m), TRAF6 MATH domain (Homo sapiens, UniProt Q9Y4K3)
T1 construct: (human TRAF6 residues 350-501) – LE – HHHHHH; made in house; host or cells: E. coli Rosetta2(DE3)
T1 sequence (Q9Y4K3 350-501): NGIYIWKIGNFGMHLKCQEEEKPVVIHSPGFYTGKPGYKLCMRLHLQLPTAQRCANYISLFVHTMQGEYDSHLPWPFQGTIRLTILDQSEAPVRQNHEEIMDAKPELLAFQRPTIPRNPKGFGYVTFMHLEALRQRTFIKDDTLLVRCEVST

T2: TRAF6 trimeric construct T6cc (coiled-coil and MATH domains) (human, UniProt Q9Y4K3 310-504, biotin on the BAP tag)
T2 chain: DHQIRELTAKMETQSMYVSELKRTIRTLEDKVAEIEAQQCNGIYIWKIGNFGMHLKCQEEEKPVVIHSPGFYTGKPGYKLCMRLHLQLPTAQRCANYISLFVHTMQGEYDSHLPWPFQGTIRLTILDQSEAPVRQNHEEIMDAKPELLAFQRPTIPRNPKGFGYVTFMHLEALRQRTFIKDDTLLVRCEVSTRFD

T3: TRAF6 trimeric construct T6cc (coiled-coil and MATH domains) (human, UniProt Q9Y4K3 310-504, biotin on the BAP tag)
T3 construct: human TRAF6, residues 310-504, including the coiled-coil trimerization domain and the MATH domain; Expressed from a pDW363 vector; Concentrations of T6cc are reported as monomer concentrations; also called trimeric TRAF6; biotinylated TRAF6 homotrimers; source: E. coli BL21(DE3), co-expressed with BirA, purified (Ni-NTA, gel filtration); not shown: BAP tag, N-terminal, kept
T3 sequence (looked up): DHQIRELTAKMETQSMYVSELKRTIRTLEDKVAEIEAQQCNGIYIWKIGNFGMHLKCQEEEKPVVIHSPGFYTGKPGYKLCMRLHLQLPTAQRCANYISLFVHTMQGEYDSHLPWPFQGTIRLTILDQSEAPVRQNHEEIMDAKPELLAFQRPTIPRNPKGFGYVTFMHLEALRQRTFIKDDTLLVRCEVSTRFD


Legend:
[1] = target: T1, monomeric TRAF6 (T6m), TRAF6 MATH domain; test: Biolayer interferometry (BLI), SUMO-peptide on tip, TRAF6 monomer in solution; settings: biotinylated SUMO-peptide on streptavidin tip, T6m in solution up to 150 μM; 20 mM Tris pH 8.0, 207 mM NaCl; room temperature; steady-state fit; average of 3 replicate binding curves ± SEM
From the text: To further validate the cell‐surface interactions identified in the screen, we measured TRAF6‐peptide binding by biolayer interferometry (BLI), using purified monomeric TRAF6 MATH domain (construct termed T6m) in solution and purified peptides attached to the sensor tip (see Table S1 for construct details). […] The BLI data validate the cell‐surface display results and support the conclusion that top hits from the screen bind with higher affinity than CD40*, which is one of the tightest known TRAF6 peptide binders[19] (Figure 3). Based on these observations, we conclude that despite the screening assay being performed in the environment of the cell surface, and in a multi‐valent context, enrichment sorting returned high‐affinity binders.
Vectors, bacterial cells, and cloning: The expression constructs and cell surface display constructs are detailed in Table S1. The TRAF6 trimeric construct, here termed T6cc, consisted of residues 310–504 of human TRAF6 (including the MATH domain and coiled‐coil trimerization domain), an N‐terminal BAP tag for biotinylation, and a hexahistidine tag for purification. The construct was expressed using a pDW363 vector to ensure biotinylation. A monomeric TRAF6 construct lacking the trimerization domain and BAP tag, here termed T6m, consisted of residues 350–501 of human TRAF6 and a hexahistidine tag. The construct was expressed in a pDW363 vector, although the lack of a BAP tag ensured no biotinylation of this protein. SUMO‐peptide fusion constructs contained a BAP tag, hexahistidine tag, and SUMO tag. The construct was expressed in a pDW363 vector to ensure biotinylation. E. coli strains BL21(DE3), DH5α, and MC1061 were used for protein expression, cloning, and surface display, respectively. For bacterial surface display of TRAF6‐binding peptides, the eCPX vector designed by the Daugherty group[56] was modified at the C‐terminus to append a FLAG sequence, a linker containing a SfiI site, and the CD40* peptide sequence, which included 9 residues resolved in the X‐ray structure of CD40* bound to TRAF6 (PDB ID: 1LB6[19]) plus 8 flanking residues on each side of this core region. The CD40*‐derived sequence used was […].
Protein purification and preparation: T6cc was co‐expressed with the biotin ligase BirA (from the pDW363 vector) in BL21(DE3) E. coli for 5 hours at 37°C. Media was supplemented with 0.05 mM D‐(+)‐biotin. The protein was then purified using Ni^2+‐NTA affinity chromatography followed by gel‐filtration chromatography into a final buffer of 20 mM Tris pH 8.0, 150 mM NaCl, 5% glycerol, 1 mM DTT. Purified protein was concentrated before storing at −80°C in aliquots for later use. Concentrations of T6cc are reported as monomer concentrations. […]

[2] = target: TRAF6; settings: reported affinity for TRAF6, ITC; read-out: Kd by isothermal titration calorimetry; cited from earlier work
From the text: High‐affinity TRAF6 binders isolated in this work can serve as lead peptides for inhibitor development. TRAF6 signaling is implicated in inflammation and cardiovascular disease.[12], [13], [18] Targeting TRAF6 MATH is reported to improve insulin sensitivity in obese mice, improve heart function in mouse models of non‐ischemic cardiac failure, reduce atherosclerosis, and inhibit osteoclastogenesis and bone resorption.[14], [15], [16], [17] A RANK peptide attached to a protein transduction sequence to promote cell entry is currently sold commercially as a TRAF6 inhibitor (e.g., Novus Biologicals ...

[3] = target: RANK peptide (Homo sapiens); test: ITC; settings: cited from earlier work
[4] = target: … peptide displayed on E. coli via eCPX (human); test: flow cytometry on cells; single-clone titration: biotinylated T6cc (0 nM to 3 uM, eight concentrations) on peptide-displaying E. coli, 4°C 60 min in PBS + BSA, detected with streptavidin-PE; apparent cell-surface constant Kd*, multivalent, not likely at equilibrium
[5] = target: biotinylated SUMO-peptide fusion of CD40* (…) (human); test: BLI; biotinylated SUMO-peptides immobilised on streptavidin tips, T6m in solution; room temperature; 20 mM Tris pH 8.0, 207 mM NaCl, 1 mM DTT, 1% glycerol, 0.1% BSA, 0.1% Tween-20; steady-state fit, SUMO-only control subtracted
[6] = target: biotinylated SUMO-peptide fusion of …; test: as above
[7] = target: T2, TRAF6 trimeric construct T6cc …; test: FACS
[8] = target: T2, TRAF6 trimeric construct T6cc …; test: FACS; apparent Kd*, cell-surface display
[9] = target: T3, TRAF6 trimeric construct T6cc …; test: flow cytometry on cells; single-clone titration: biotinylated T6cc (0 nM to 3 uM, eight concentrations) on peptide-displaying E. coli, 4°C 60 min in PBS + BSA, detected with streptavidin-PE; apparent cell-surface constant Kd*, multivalent, not likely at equilibrium; settings: one partner purified

Sequence of TRAF6 (from UniProt Q9Y4K3) (Q9Y4K3 whole entry): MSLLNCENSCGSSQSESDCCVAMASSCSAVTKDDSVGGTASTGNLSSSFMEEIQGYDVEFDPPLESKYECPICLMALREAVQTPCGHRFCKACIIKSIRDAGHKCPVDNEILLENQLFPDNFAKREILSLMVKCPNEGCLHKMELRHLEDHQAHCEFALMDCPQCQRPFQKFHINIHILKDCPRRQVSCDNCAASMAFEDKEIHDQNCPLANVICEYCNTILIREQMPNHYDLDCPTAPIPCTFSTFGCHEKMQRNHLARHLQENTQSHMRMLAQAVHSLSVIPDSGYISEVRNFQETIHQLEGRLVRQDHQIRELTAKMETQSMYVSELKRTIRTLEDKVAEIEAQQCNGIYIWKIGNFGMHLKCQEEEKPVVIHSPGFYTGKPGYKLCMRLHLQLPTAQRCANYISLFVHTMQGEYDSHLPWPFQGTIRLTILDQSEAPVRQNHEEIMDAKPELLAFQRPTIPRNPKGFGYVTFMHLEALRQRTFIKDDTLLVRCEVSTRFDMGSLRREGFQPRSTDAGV

Molecule	Kd [7] [nM]	Kd [8] [nM]	other results
LNLPEESDW	–	–	Kd [1]: 27500 nM
TNWPEENDW	–	–	Kd [1]: 37200 nM
KQEPQEIDF [CD40*, reference compound]	–	–	Kd [1]: 240000 ± 23000 nM; Kd [2]: 84000 nM
RNVPEESDW	–	–	Kd [1]: 24000 ± 3800 nM
TRAF6 (from UniProt Q9Y4K3)	–	–	Kd [3]: 78000 nM
TRAF6 trimeric construct T6cc (coiled-coil and MATH domains) (domain or fragment, biotin on the BAP tag) DHQIRELTAKMETQSMYVSELKRTIRTLEDKVAEIEAQQCNGIYIWKIGNFGMHLKCQEEEKPVVIHSPGFYTGKPGYKLCMRLHLQLPTAQRCANYISLFVHTMQGEYDSHLPWPFQGTIRLTILDQSEAPVRQNHEEIMDAKPELLAFQRPTIPRNPKGFGYVTFMHLEALRQRTFIKDDTLLVRCEVSTRFD	–	–	Kd [4]: 84 nM and 46 nM and 31 nM
TRAF6 monomeric MATH domain construct T6m (domain or fragment) NGIYIWKIGNFGMHLKCQEEEKPVVIHSPGFYTGKPGYKLCMRLHLQLPTAQRCANYISLFVHTMQGEYDSHLPWPFQGTIRLTILDQSEAPVRQNHEEIMDAKPELLAFQRPTIPRNPKGFGYVTFMHLEALRQRTFIKDDTLLVRCEVST	–	–	Kd [5]: 240000 nM; Kd [6]: 37000 nM and 28000 nM and 24000 nM
TYGPVENSW	581	581	–
LQLPEENDW	498	498	–
QNLPTESDW	45.2	45.2	–
TRMPVESDW	169	169	–
RNVPEEIYW	260	260	–
RNWPTETDW	58.3	58.3	–
GKYPEENDW	240	240	–
HNIPTETSW	186	186	–
PQDPVETFW	374	374	–
MNAPVESDW	110	110	–
SPVPEESTW	332	332	–
PTNKAPHPKQEPQEIDFPDDLPGSNT (9 residues resolved in PDB 1LB6 plus 8 flanking residues on each side; also called KQEPQEIDF (CD40*); not shown: eCPX (re-engineered OmpX), N-terminal, kept; FLAG, N-terminal, kept) [CD40* peptide (KQEPQEIDF with 8 flanking CD40 residues on each side) displayed on E. coli via eCPX]	–	–	Kd [9]: 1200 nM
